From the supplement of paper PMC9732359
± gives the uncertainty stated by the source.

Assay: protein stability index of a GFP-peptide fusion (yeast GPS) (PSI 1-4); higher = more stable; sorted into four equal gates, so the index is relative within each strain
How it was run: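 Plasmids isolated from each sorting gate were PCR-amplified and Illumina-sequenced, and barcodes assigned the reads to strains. The gates, four of equal size, were set by GFP/Cherry fluorescence ratio on mid-log cultures in leucine-free medium. These cultures were yeast carrying a pooled library of tiled 17-residue yeast protein peptides fused downstream of GFP on a plasmid that also expresses Cherry. The protein stability index is the sum of every gate's read frequency times its gate number.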

Row | Sequence | protein stability index (doa10∆) | protein stability index (pdr5∆) | protein stability index (san1∆) | protein stability index (ubr1∆)
1 | EMAEKIDFTLLNRLLRL [PRP8] | 2.72 ± 0.058 | 2.93 ± 0.058 | 2.57 ± 0.054 | 2.37 ± 0.049
2 | GEVMKELSEEKYIVKAS [RPT4] | 3.25 ± 0.061 | 3.38 ± 0.072 | 3.41 ± 0.043 | 3.3 ± 0.042
3 | IAGFDLIGCIDEAKDFI [PUP3] | 3.17 ± 0.11 | 3.33 ± 0.13 | 3.08 ± 0.073 | 3.21 ± 0.055
4 | FIPHGLKRRQVIEQCYL [SRB8] | 2.78 ± 0.074 | 2.63 ± 0.08 | 2.46 ± 0.1 | 2.44 ± 0.049
5 | KDRISSCSSKEKTLVLE [SMC4] | 2.58 ± 0.097 | 2.6 ± 0.083 | 2.45 ± 0.12 | 2.88 ± 0.098
6 | MSAAPVQDKDTLSNAER [GAL11] | 3.6 ± 0.15 | 3.07 ± 0.16 | 3.34 ± 0.073 | 3.04 ± 0.079
7 | ESWFKALAGSEINWRHA [FAS1] | 3.31 ± 0.11 | 2.54 ± 0.081 | 2.63 ± 0.083 | 2.59 ± 0.057
8 | DGRVNRFYELEESLTVL [YJR042W/NUP85] | 2.28 ± 0.12 | 2.21 ± 0.13 | – | 1.99 ± 0.1
9 | EGTSISVHLIECYKQLF [YCS4] | 3.46 ± 0.14 | 3.39 ± 0.12 | 3.42 ± 0.14 | 3.3 ± 0.063
10 | LIPDGRHLVNRGREEAA [PRE10] | – | 1.41 ± 0.28 | – | –
11 | PKHSYLSGNPLTSVTND [SIR4] | 2.67 ± 0.073 | 3.03 ± 0.071 | 3.17 ± 0.056 | 2.97 ± 0.074
12 | IDMDKLNTVLIADLDTE [RRP43] | 2.66 ± 0.099 | 3.02 ± 0.07 | 2.83 ± 0.066 | 3.22 ± 0.057
13 | GLSILFLTGQFASNKKI [YML103C/NUP188] | 2.36 ± 0.068 | 2.37 ± 0.062 | 2.68 ± 0.079 | 2.35 ± 0.052
14 | SAMPAPYMPYYYYYHPM [DSN1] | 2.4 ± 0.058 | 2.87 ± 0.056 | 2.74 ± 0.049 | 2.84 ± 0.042
15 | QQLRTWKRQISYFLKLL [SRB8] | 1.63 ± 0.049 | 2.18 ± 0.066 | 1.93 ± 0.088 | 1.91 ± 0.039
16 | GNIFSNIGTPSFNMAQI [SNF5] | 2.58 ± 0.099 | 2.66 ± 0.093 | 3.05 ± 0.069 | 2.64 ± 0.054
17 | QETASPLSQDELISLRK [YIL149C/MLP2] | 2.42 ± 0.06 | 2.22 ± 0.074 | 1.89 ± 0.11 | 2.13 ± 0.061
18 | NVVEIWVFSYLRWFELK [SIR3] | 1.31 ± 0.088 | 1.38 ± 0.066 | 2.17 ± 0.16 | 2.21 ± 0.063
19 | PYNLNLFPNELYNVMGI [RPC31] | 2.12 ± 0.061 | 2.52 ± 0.092 | 2.71 ± 0.086 | 2.38 ± 0.12
20 | QQREAVRQLYKGKKYQP [RPL35A] | 3.63 ± 0.29 | 3.42 ± 0.14 | 2.94 ± 0.14 | 2.83 ± 0.091

Row | Sequence | protein stability index (doa10∆) | protein stability index (pdr5∆) | protein stability index (san1∆) | protein stability index (ubr1∆)
21 | ATSDNKTTNTTPSFSFG [YJL041W/NSP1] | 3.13 ± 0.063 | 3.05 ± 0.076 | 3.09 ± 0.032 | 3.1 ± 0.042
22 | TIEHAADITDGNNTELT [YCG1] | 3.29 ± 0.081 | 3.46 ± 0.082 | 3.33 ± 0.078 | 3.31 ± 0.069
23 | TFAQEKLNTFENDLLQE [SMC3] | 3.33 ± 0.18 | 3.26 ± 0.12 | 3.12 ± 0.13 | 2.81 ± 0.13
24 | PFDQNLDSNNNNSNSNN [SWI1] | 2.65 ± 0.033 | 2.74 ± 0.037 | 2.839 ± 0.026 | 2.74 ± 0.027
25 | LLDEEAEQSFDQQSPWL [RPO21] | 3.27 ± 0.073 | 3.25 ± 0.065 | 3.24 ± 0.045 | 3.08 ± 0.048
26 | ESMLHLSIWIKNYPEYF [IRR1] | 2.17 ± 0.046 | 2.06 ± 0.038 | 2.25 ± 0.061 | 2.2 ± 0.043
27 | PTITLDDVYRPAAESKI [SNF5] | 3.13 ± 0.068 | 3.11 ± 0.071 | 3.02 ± 0.09 | 2.98 ± 0.068
28 | FSRFVDQFIRHVLRGVE [YCG1] | 3.37 ± 0.25 | 1.5 ± 0.1 | – | 1.72 ± 0.16
29 | PNKVKTEDIRIRAQNFK [RRP6] | 2.75 ± 0.061 | 2.88 ± 0.082 | 2.56 ± 0.077 | 2.84 ± 0.039
30 | IYEVDITVHAPLLPIVE [SNU114] | 2.32 ± 0.056 | 2.29 ± 0.056 | 2.19 ± 0.088 | 2.52 ± 0.043
31 | EDFDVEHFSDEETYEEK [RPO26] | 3.64 ± 0.11 | 3.05 ± 0.2 | 3.19 ± 0.22 | 3.45 ± 0.11
32 | HFPINVNIVEKDGAKFI [RPL9A] | 2.58 ± 0.069 | 2.57 ± 0.079 | 2.53 ± 0.065 | 2.5 ± 0.07
33 | NNANVLGGEINDNEDDD [BRR2] | 3.3 ± 0.095 | 3.2 ± 0.082 | 3.3 ± 0.072 | 2.98 ± 0.061
34 | SDSIELLKQYPKDSSST [YJR042W/NUP85] | 2.62 ± 0.047 | 2.77 ± 0.051 | 2.61 ± 0.044 | 2.82 ± 0.041
35 | IEKMSTIVQLCKKKEMS [YIL149C/MLP2] | 1.8 ± 0.059 | 1.78 ± 0.055 | 1.59 ± 0.099 | 1.76 ± 0.051
36 | VDKNFDKLELYVLRNVL [MTW1] | 3.01 ± 0.096 | 2.43 ± 0.078 | 2.81 ± 0.12 | 3.05 ± 0.071
37 | KVPDISSDGQLKKFRES [BRR2] | 3.36 ± 0.13 | 3.49 ± 0.14 | 3.39 ± 0.07 | 3.54 ± 0.065
38 | DQEIVIQQLHSVLNPFL [ISW2] | 2.3 ± 0.042 | 2.09 ± 0.042 | 1.98 ± 0.056 | 2.26 ± 0.032
39 | ATAFNKTRGPFHFRAPS [RPL16A] | 2.67 ± 0.12 | 3.07 ± 0.1 | 2.56 ± 0.094 | 2.71 ± 0.072
